Assay results taken from patent US20130084298A1 (ACADEMIA SINICA, published 2013).

Biological target: T1, human clathrin heavy chain (CHC) (human, UniProt Q00610 2-1675)
T1 construct: Endogenous ~190 kDa protein of human cancer cell lines (MIA PaCa-2 and others); No recombinant construct was used; also called CLTC gene product
Test: hybridoma mAb, target identification

T1 sequence (Q00610 2-1675 limits assumed): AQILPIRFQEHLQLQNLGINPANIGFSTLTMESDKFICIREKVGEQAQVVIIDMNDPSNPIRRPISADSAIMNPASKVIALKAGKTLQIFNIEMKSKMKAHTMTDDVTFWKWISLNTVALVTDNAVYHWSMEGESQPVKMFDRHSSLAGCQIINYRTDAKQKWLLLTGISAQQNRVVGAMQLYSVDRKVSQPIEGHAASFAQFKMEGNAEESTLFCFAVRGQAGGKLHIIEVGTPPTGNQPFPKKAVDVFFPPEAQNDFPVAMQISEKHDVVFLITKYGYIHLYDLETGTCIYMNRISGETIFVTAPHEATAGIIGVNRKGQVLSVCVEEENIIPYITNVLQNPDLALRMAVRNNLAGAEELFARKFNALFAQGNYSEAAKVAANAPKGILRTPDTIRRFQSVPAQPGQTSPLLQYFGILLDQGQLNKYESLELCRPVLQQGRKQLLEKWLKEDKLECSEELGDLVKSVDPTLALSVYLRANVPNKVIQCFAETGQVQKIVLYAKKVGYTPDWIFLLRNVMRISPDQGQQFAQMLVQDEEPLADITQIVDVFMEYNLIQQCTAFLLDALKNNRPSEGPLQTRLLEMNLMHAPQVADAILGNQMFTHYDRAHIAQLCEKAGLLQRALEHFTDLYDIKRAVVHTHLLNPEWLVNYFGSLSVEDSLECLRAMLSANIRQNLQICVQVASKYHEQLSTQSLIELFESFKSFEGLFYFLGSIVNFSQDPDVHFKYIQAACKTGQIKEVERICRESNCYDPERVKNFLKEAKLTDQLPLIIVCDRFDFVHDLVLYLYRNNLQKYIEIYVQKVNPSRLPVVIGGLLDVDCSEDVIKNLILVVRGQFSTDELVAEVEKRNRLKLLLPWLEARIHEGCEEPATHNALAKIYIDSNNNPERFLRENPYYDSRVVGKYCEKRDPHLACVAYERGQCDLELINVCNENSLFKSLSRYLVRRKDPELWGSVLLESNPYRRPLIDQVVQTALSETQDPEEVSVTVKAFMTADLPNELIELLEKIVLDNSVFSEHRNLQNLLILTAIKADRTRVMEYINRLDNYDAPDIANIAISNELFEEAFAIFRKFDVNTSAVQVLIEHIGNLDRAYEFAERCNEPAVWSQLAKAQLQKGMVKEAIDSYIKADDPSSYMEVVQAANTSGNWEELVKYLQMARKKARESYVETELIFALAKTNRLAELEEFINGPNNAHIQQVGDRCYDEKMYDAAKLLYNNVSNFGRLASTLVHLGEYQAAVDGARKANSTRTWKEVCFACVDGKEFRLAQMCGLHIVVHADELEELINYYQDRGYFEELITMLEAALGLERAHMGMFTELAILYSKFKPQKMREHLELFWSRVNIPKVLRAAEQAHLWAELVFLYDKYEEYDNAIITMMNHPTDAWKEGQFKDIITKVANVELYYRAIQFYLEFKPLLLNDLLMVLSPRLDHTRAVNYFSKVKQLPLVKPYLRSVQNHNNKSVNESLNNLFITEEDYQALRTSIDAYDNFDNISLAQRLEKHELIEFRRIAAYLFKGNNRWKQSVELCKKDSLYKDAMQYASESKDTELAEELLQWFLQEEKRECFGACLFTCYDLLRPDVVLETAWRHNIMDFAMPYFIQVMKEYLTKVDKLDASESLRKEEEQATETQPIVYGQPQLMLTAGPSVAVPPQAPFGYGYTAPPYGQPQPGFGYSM

binding result: binds
B1: Pa65-2 (antibody, V domains shown)
VH: EVKLVESGGGLVKPGGSLNISCAASGFTFSNYVMSWVRQTPEKRLEWVATISSGDNYMYYPDSVKGRFTISSDNAKNTLFLQMSSLRSEDTALYYCARHFDNYEGNSMDYWGQGTSVTVSS
VL: DIVLTQSPATLSVTPGDSVSLSCRASQSIRSNLHWYQQKSHESPRLLIKYASQSISGIPSRFSGSGSGTDFILSINSVATEDFGVYFCQQSNSWPLTFGAGTKLELKR
notes: also called Pa65-2 mAb; anti-CHC monoclonal antibody
